Measurements taken from patent publication US20180163176A1 (NANTKWEST, published 2018).

Target: CD33 (UniProt P20138 18-364, limits assumed)
Experiment: cell-based or functional assay

Chain of CD33 (P20138 18-364 limits assumed): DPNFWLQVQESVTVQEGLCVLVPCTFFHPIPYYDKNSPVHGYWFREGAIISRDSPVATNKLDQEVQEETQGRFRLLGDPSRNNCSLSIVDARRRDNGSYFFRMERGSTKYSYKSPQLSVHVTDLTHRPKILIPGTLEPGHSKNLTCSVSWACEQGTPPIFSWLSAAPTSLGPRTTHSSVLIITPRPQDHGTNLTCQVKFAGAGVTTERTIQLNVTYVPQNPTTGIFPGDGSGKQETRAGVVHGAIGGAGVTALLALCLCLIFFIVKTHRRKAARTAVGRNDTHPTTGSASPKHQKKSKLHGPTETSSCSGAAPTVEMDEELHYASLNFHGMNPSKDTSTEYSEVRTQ

B1: CD33-CAR (other)
chain: MDWIWRILFLVGAATGAHSAQPADIQMTQSPSSLSASVGDRVTITCRASESVDNYGISFMNWFQQKPGKAPKLLIYAASNQGSGVPSRFSGSGSGTDFTLTISSLQPDDFATYYCQQSKEVPWTFGQGTKVEIKGGGGSGGGGSGGGGSQVQLVQSGAEVKKPGSSVKVSCKASGYTFTDYNMHWVRQAPGQGLEWIGYIYPYNGGTGYNQKFKSKATITADESTNTAYMELSSLRSEDTAVYYCARGRPAMDYWGQGTLVTVSSALSNSIMYFSHFVPVFLPAKPTTTPAPRPPTPAPTIASQPLSLRPEASRPAAGGAVHTRGLDPKLCYLLDGILFIYGVILTALFLRVKFSRSADAPAYQQGQNQLYNELNLGRREEYDVLDKRRGRDPEMGGKPRRKNPQEGLYNELQKDKMAEAYSEIGMKGERRRGKGHDGLYQGLSTATKDTYDALHMQALPPR
- cytotoxicity against aNK resistant cell lines at 24 hours (flow cytometry assay): > 80%
